{"source": "patent US20250228955A1", "about": "(ALBERT EINSTEIN COLLEGE OF MEDICINE, published 2025)", "binders": {"B1": {"name": "ODIN-8 (VHH-72.58 with UL-CDR3 from 60H05 bovine IgG in FR2 loop) (bispecific antibody, V domains shown)", "VH": "MGWFRQNKLKSCPDGYTSGVECRFRGYTCANDGCWRVCSFTTCSGWMPASDTYRREFVATISWSGGSTYYTDSVKGRFTISRDNAKNTVYLQMNSLKPDDTAVYYCAAAGLGTVVSEWDYDYDYWGQGTQVTVSS"}, "B2": {"name": "ODIN-1-A56R fusion (ODIN-1 fused to vaccinia virus (VACV) A56R for rVACV display) (bispecific antibody, V domains shown)", "VH": "MGWFRQTNKKECPEDYTYNPRCPQQYGWSDCDCMGDRFGGYCRQDGCSNYIHRSTREFVATISWSGGSTYYTDSVKGRFTISRDNAKNTVYLQMNSLKPDDTAVYYCAAAGLGTVVSEWDYDYDYWGQGTQVTVSS"}, "B3": {"name": "VHH-72 (SARS-CoV-2 spike VHH, soluble recombinant) (VHH)", "VHH": "QVQLQESGGGLVQAGGSLRLSCAASGRTFSEYAMGWFRQAPGKEREFVATISWSGGSTYYTDSVKGRFTISRDNAKNTVYLQMNSLKPDDTAVYYCAAAGLGTVVSEWDYDYDYWGQGTQVTVSS", "notes": "also called parental VHH-72; VHH 72.58"}, "B4": {"name": "VHH-72-A56R fusion (VHH-72 fused to vaccinia virus (VACV) A56R for rVACV display) (VHH)", "VHH": "B3 VHH"}}, "key": {"[1]": {"target": "T1, recombinant Strep-tagged SARS-CoV-2 trimeric spike (SARS-CoV-2, UniProt P0DTC2 14-1208)"}, "[2]": {"target": "T2, human epidermal growth factor receptor (EGFR) (human, UniProt P00533 25-645)"}, "[3]": {"target": "T1, recombinant Strep-tagged SARS-CoV-2 …", "remark": "listed apart in the source"}, "[4]": {"target": "T1, recombinant Strep-tagged SARS-CoV-2 …", "remark": "listed apart in the source"}, "[5]": {"target": "T2, human epidermal growth factor receptor …", "assay": "biolayer interferometry"}, "[6]": {"target": "T1, recombinant Strep-tagged SARS-CoV-2 …", "remark": "listed apart in the source"}}, "note": "Like-named read-outs stand apart in the source and are kept apart here."}
{"binder": "B1", "values": [{"measurement": "Kd", "setting": "[1]", "result": 76.4, "unit": "nM"}, {"measurement": "koff", "setting": "[1]", "result": 0.012, "unit": "s⁻¹"}, {"measurement": "kon", "setting": "[1]", "result": 158000, "unit": "M⁻¹ s⁻¹"}, {"measurement": "Kd", "setting": "[2]", "result": 11.4, "unit": "nM"}, {"measurement": "koff", "setting": "[2]", "result": 0.00103, "unit": "s⁻¹"}, {"measurement": "kon", "setting": "[2]", "result": 90500, "unit": "M⁻¹ s⁻¹"}]}
{"binder": "B2", "values": [{"measurement": "EC50 (read off the curve)", "setting": "[3]", "result": "~0.2", "unit": "ng/µL"}, {"measurement": "EC50 (read off the curve)", "setting": "[4]", "result": "~0.06", "unit": "ng/µL"}]}
{"binder": "B3", "values": [{"measurement": "binding result", "setting": "[5]", "result": "no binding"}, {"measurement": "Kd", "setting": "[6]", "result": 460, "unit": "nM"}, {"measurement": "koff", "setting": "[6]", "result": 0.0364, "unit": "s⁻¹"}, {"measurement": "kon", "setting": "[6]", "result": 79200, "unit": "M⁻¹ s⁻¹"}]}
{"binder": "B4", "values": [{"measurement": "EC50 (read off the curve)", "setting": "[4]", "result": "~0.07", "unit": "ng/µL"}]}
